The text below walks through data of the DeepSol protein solubility set.

The series is described as follows: soluble on expression in E. coli; label from the status in PepcDB or PDB records.
For “MIGRNRYAMLTVDTEALPKRAVQDHIKRLMWGEHDGGCAGIREMCAIGNECGVKQVFFVDMCGAYACLDQTLDVVRWLDQDGQDVQLHAHPEYLPEQFWKEHGFKYRPRFLNQYGIEKATFTIKYFGKLISDLTGKPLRAFRAGSFRWNADTLRALQEAGVSLSFNNSMNARLKGQCTYSEPTNHSYLWSNGVIEVPVTERKFFPLFGKEWWGRLQFPVGDWLGSPPWRVLRPYTVGADPSFLVVLLHSWSLLYWDKDGYAVYRDDKRIEDYRKLVRRLARDYDIITTADFLDLYACGKIKTTHTADLSLAEFKAVKKLEHHHHHH”, the “soluble on expression in E. coli” value is reported as “not soluble”.

As to “MTVPEEAQTLIGKHYRAPDHFLVGREKIREFAVAVKDDHPTHYSEPDAAAAGYPALVAPLTFLAIAGRRVQLEIFTKFNIPINIARVFHRDQKFRFHRPILANDKLYFDTYLDSVIESHGTVLAEIRSEVTDAEGKPVVTSVVTMLGLEHHHHHH”, the “soluble on expression in E. coli” value was “not soluble”.

For “MGSDKIHHHHHHMFAITGITGQVGGVVARALLAAGKDVRAVVRSAAKGAQWKEQGCEIAVAEMSDTQALSGAFSGVDGVFILLPPNFDPSPDFAESRHLVGTLRDALKQANPPKVVCLSTIGAQAAQPNLLQQLGYMEQQLGSLPMPIAFLRAGWFIENAAWDVEPARTAGVIPSFLQPLDKPVPMVATADVGRVAASMLQQAWTGKRIVELEGPRRITPNDLANTFARLLGKDVRMETVPRDTWEALFKSQGMKNPVPRMQMLDGFNEGWIEFETPDQTIKGNVTLETVLQSLIERVG”, the “soluble on expression in E. coli” value is listed as “not soluble”.

As to “MNREFVEAMQHLALERGVSVEEILKAFKRALRKAYIKRQKGYKKEEIDQGKGPEVDVYIDPNSGRIEMVKVRRVVEKVEDPDKEIALAEALQYDPEVQVGDEMEFPINPEELSRMAIQDLRQILTQRLKESERNRIYNEYKDKEGQVLTGVVTRVDNRGNVFVELGRGEAYLPRSEQIPTEKYHPGQRIKVYLKKVDKSAKGPSLLVSRAHEKLLEHLLKQEVPEIAEGIVEIKAIAREPGRRSKVAVTSHNPNVDPIGACIGHKGQRIQAVSAELGREKVDIILWSKDPKEFIRNALSPAQVGSIELDPEAKKARVKVTKDQHSLAIGTGGQNVRLASKLTGYDIHFEEAEISDLDEALRRAAEEEAEARERKAREEFEKLFRDLG”, the “soluble on expression in E. coli” value is “soluble”.

With “MSLGYRVGNSDSTSLLSAFAPPERAKKKSKEKRPLQAARFLSLLYPKTDPHSAVQDPSLVHEEHQTRLAYLQDRLCSTGDILKNTRTLETIAAYKQAVKEFVQYAIKHNYTTESKSSIRIDRGTGMPDTVIFTKIKVIDQKLASFVRELMSHQVDQLTVLQKTEEIYGMLVDLLIEGHHHHHH”, the “soluble on expression in E. coli” value is “soluble”.

Consider “MGSDKIHHHHHHMAKVVISGYYGFDNLGDEAVLFSILKTLRELQIGIRIEVLSNNPSQTAEIYRVTAANRWKLGEVYHALKDSDMLISGGGSLLQDVTGWKSLVYYLGVIWLARFLGKPVFFYAQGIGPVNTPLGRLLMRWIVNKVNYITVRDESSRQDLAEMKISRPPVEVTADPVLGLEEKYVDKKIGQAILQEVGLDLSIERKMVGISVREWQGLGEYKEVVAELCDKLCRVGYQVVFLPMHSPDDLETSREVAAMMEQPAVVLEGHYSVVEMASLIANMDLLIGMRLHALILAAVMHVPPVAISYDPKIDRFMGLLGKTAATPVDRPQFAELWQAVEEIIYEPWQVREELMQQVEPLRQRAQASAVLGLKVLEKSLHNGPAAKYL”, for which the “soluble on expression in E. coli” value was “not soluble”.

Regarding “MMKYTAVLDKPVTGNETTGSLPEPLLREALGAALRAFRADKGITLRELAETSRVSPGYLSELERGRKEVSSELLASVCHALGTSVSDVLIEAAGTMAMRSAEADLVRVS”, the “soluble on expression in E. coli” value is recorded as “not soluble”.

In the case of “MIFTSGANKLNDNRNVRTKISSNRQSIKTAPTKAAEIPEYLQLYQTPPGDDISLTEFDDIAMERLKLLKSFENLKDSVSLYNDEFKDKFRKLCDGTKLIVFPDQKPPHQEEVYELWRRDNIGHFILRLAFCRTPENQKWLTQIEGDFLRFRLRQEREQVLDSALANVNFTIEKLGYTEKQAMIEDLEAACQFNLFEAPNKTFYKVDFIDAIELIRRGSVHLKKGFAYFPFDDLVTILVTKMKNNMMAAMARSFKHLAILEEEGRLLPRLSLLSNNAYSGKDYNGEQPDGSIIVTRHMIDKLSRRSFAPCMKQMHNHLRVNHHLKYGARRQYGLFLKGIGLSLDEAIAMMRDEFTKKITSDKFDKEYGYNIRYMYGKEGRRVAQTAMSCATIILRNPPSAVDCHGCPFRHSEKQVLKQKLGSDAILKKEQIERIAELAELNQYDKACTRYFEFMHNLEEGGLGQLITHPNQFYEESQKIVAERIAAKQESQEAPAPKIEKMDTE”, the “soluble on expression in E. coli” value was “not soluble”.
